Measured values from PMC3706390.

Molecular target: L30 (ribosomal protein L30) wild-type (rat) (UniProt P62890)
Experiment: EMSA
Details: 30 mM Tris-HCl pH 8.0, 75 mM KCl, 5 mM MgCl2, 1 mM DTT, 0.04 ug/uL BSA, 10% glycerol, 50 ng/uL yeast tRNA, 30 C 15 min; EMSA gels 0.5X TBE at 4 C; RNase …

With PHGPx SECIS 102 nt (REMSA) the Kd was 490 nM.
